± gives the standard deviation of the averaged measurements.
Test: total protein half-life in vivo (active degradation + dilution); higher = more stable protein
[1] = E. coli NCM3722 delta-clpP delta-lon delta-hslV, growth: N-lim chemostat, doubling time 6 h
[2] = E. coli NCM3722 delta-clpP, growth: N-lim chemostat, doubling time 6 h
[3] = E. coli NCM3722 delta-hslV, growth: N-lim chemostat, doubling time 6 h
[4] = E. coli NCM3722 delta-lon, growth: N-lim chemostat, doubling time 6 h
[5] = E. coli NCM3722 delta-smpB, growth: N-lim chemostat, doubling time 6 h
[6] = wild type E. coli NCM3722, growth: C-lim chemostat, doubling time 3 h
[7] = wild type E. coli NCM3722, growth: C-lim chemostat, doubling time 6 h
[8] = wild type E. coli NCM3722, growth: C-lim chemostat, doubling time 12 h
[9] = wild type E. coli NCM3722, growth: N-lim chemostat, doubling time 6 h
[10] = wild type E. coli NCM3722, growth: N-lim chemostat, doubling time 12 h
[11] = wild type E. coli NCM3722, growth: P-lim chemostat, doubling time 6 h
[12] = wild type E. coli NCM3722, growth: P-lim chemostat, doubling time 12 h

In the case of “MIKKIGVLTSGGDAPGMNAAIRGVVRSALTEGLEVMGIYDGYLGLYEDRMVQLDRYSVSDMINRGGTFLGSARFPEFRDENIRAVAIENLKKRGIDALVVIGGDGSYMGAMRLTEMGFPCIGLPGTIDNDIKGTDYTIGFFTALSTVVEAIDRLRDTSSSHQRISVVEVMGRYCGDLTLAAAIAGGCEFVVVPEVEFSREDLVNEIKAGIAKGKKHAIVAITEHMCDVDELAHFIEKETGRETRATVLGHIQRGGSPVPYDRILASRMGAYAIDLLLAGYGGRCVGIQNEQLVHHDIIDAIENMKRPFKGDWLDCAKKLY [P0A796]”, the “total protein half-life in vivo” value [1] is reported as 4.43 ± 0.51 h, the “total protein half-life in vivo” value [2] is reported as 3.9 ± 0.11 h and the “total protein half-life in vivo” value [3] is reported as 4.03 ± 0.12 h. The “total protein half-life in vivo” value [4] was 4.146 ± 0.0074 h, the “total protein half-life in vivo” value [5] was 3.89 ± 0.13 h and the “total protein half-life in vivo” value [6] was 3 ± 0.15 h. For the same sequence, the “total protein half-life in vivo” value [7] was 5.83 ± 0.099 h, the “total protein half-life in vivo” value [8] was 10.3 ± 0.71 h and the “total protein half-life in vivo” value [9] was 3.64 ± 0.18 h. For the same sequence, the “total protein half-life in vivo” value [10] was 5.77 ± 0.15 h, the “total protein half-life in vivo” value [11] was 5.69 ± 0.36 h and the “total protein half-life in vivo” value [12] was 11.7 ± 0.9 h.
In the case of “MIKLSNITKVFHQGTRTIQALNNVSLHVPAGQIYGVIGASGAGKSTLIRCVNLLERPTEGSVLVDGQELTTLSESELTKARRQIGMIFQHFNLLSSRTVFGNVALPLELDNTPKDEVKRRVTELLSLVGLGDKHDSYPSNLSGGQKQRVAIARALASNPKVLLCDEATSALDPATTRSILELLKDINRRLGLTILLITHEMDVVKRICDCVAVISNGELIEQDTVSEVFSHPKTPLAQKFIQSTLHLDIPEDYQERLQAEPFTDCVPMLRLEFTGQSVDAPLLSETARRFNVNNNIISAQMDYAGGVKFGIMLTEMHGTQQDTQAAIAWLQEHHVKVEVLGYV”, the “total protein half-life in vivo” value [1] is reported as 6.5123 ± 0.0016 h, the “total protein half-life in vivo” value [2] is reported as 6.41 ± 0.39 h and the “total protein half-life in vivo” value [3] is reported as 6.04 ± 0.08 h. The “total protein half-life in vivo” value [4] was 6.66 ± 0.25 h, the “total protein half-life in vivo” value [5] was 5.61 ± 0.26 h and the “total protein half-life in vivo” value [7] was 5.76 ± 0.38 h. For the same sequence, the “total protein half-life in vivo” value [8] was 9.681 ± 0.078 h, the “total protein half-life in vivo” value [9] was 5.85 ± 0.51 h and the “total protein half-life in vivo” value [10] was 12.67 ± 0.12 h. For the same sequence, the “total protein half-life in vivo” value [11] was 6.3 ± 0.86 h and the “total protein half-life in vivo” value [12] was 12.1 ± 0.42 h.
With “MIKQRTLKRIVQATGVGLHTGKKVTLTLRPAPANTGVIYRRTDLNPPVDFPADAKSVRDTMLCTCLVNEHDVRISTVEHLNAALAGLGIDNIVIEVNAPEIPIMDGSAAPFVYLLLDAGIDELNCAKKFVRIKETVRVEDGDKWAEFKPYNGFSLDFTIDFNHPAIDSSNQRYAMNFSADAFMRQISRARTFGFMRDIEYLQSRGLCLGGSFDCAIVVDDYRVLNEDGLRFEDEFVRHKMLDAIGDLFMCGHNIIGAFTAYKSGHALNNKLLQAVLAKQEAWEYVTFQDDAELPLAFKAPSAVLA [P0A725]” the “total protein half-life in vivo” value [1] was 2.8 ± 0.28 h, the “total protein half-life in vivo” value [2] was 0.889 ± 0.17 h and the “total protein half-life in vivo” value [3] was 0.979 ± 0.33 h. For the same sequence, the “total protein half-life in vivo” value [4] was 1.03 ± 0.011 h, the “total protein half-life in vivo” value [5] was 0.639 ± 0.021 h and the “total protein half-life in vivo” value [6] was 0.467 ± 0.1 h. The “total protein half-life in vivo” value [7] was 0.861 ± 0.11 h, the “total protein half-life in vivo” value [8] was 1.1 ± 0.33 h and the “total protein half-life in vivo” value [9] was 0.978 ± 0.12 h. The “total protein half-life in vivo” value [10] was 1.43 ± 0.28 h, the “total protein half-life in vivo” value [11] was 1.06 ± 0.19 h and the “total protein half-life in vivo” value [12] was 2.1 ± 0.78 h.
For “MIKRNLPLMITIGVFVLGYLYCLTQFPGFASTRVICNILTDNAFLGIIAVGMTFVILSGGIDLSVGSVIAFTGVFLAKVIGDFGLSPLLAFPLVLVMGCAFGAFMGLLIDALKIPAFIITLAGMFFLRGVSYLVSEESIPINHPIYDTLSSLAWKIPGGGRLSAMGLLMLAVVVIGIFLAHRTRFGNQVYAIGGNATSANLMGISTRSTTIRIYMLSTGLATLAGIVFSIYTQAGYALAGVGVELDAIASVVIGGTLLSGGVGTVLGTLFGVAIQGLIQTYINFDGTLSSWWTKIAIGILLFIFIALQRGLTVLWENRQSSPVTRVNIAQQ”, the “total protein half-life in vivo” value [6] was 3.66 h and the “total protein half-life in vivo” value [7] was 6.05 h.
For “MIKRTLLAAAIFSALPAYAGLTSITAGYDFTDYSGDHGNRNLAYAELVAKVENATLLFNLSQGRRDYETEHFNATRGQGAVWYKWNNWLTTRTGIAFADNTPVFARQDFRQDINLALLPKTLFTTGYRYTKYYDDVEVDAWQGGVSLYTGPVITSYRYTHYDSSDAGGSYSNMISVRLNDPRGTGYTQLWLSRGTGAYTYDWTPETRYGSMKSVSLQRIQPLTEQLNLGLTAGKVWYDTPTDDFNGLQLAARLTWKF”, the “total protein half-life in vivo” value [5] was > 8 h and the “total protein half-life in vivo” value [8] was 15.4 h.
In the case of “MIKVLIVDDEPLARENLRVFLQEQSDIEIVGECSNAVEGIGAVHKLRPDVLFLDIQMPRISGLEMVGMLDPEHRPYIVFLTAFDEYAIKAFEEHAFDYLLKPIDEARLEKTLARLRQERSKQDVSLLPENQQALKFIPCTGHSRIYLLQMKDVAFVSSRMSGVYVTSHEGKEGFTELTLRTLESRTPLLRCHRQYLVNLAHLQEIRLEDNGQAELILRNGLTVPVSRRYLKSLKEAIGL [P0AFT5]”, the “total protein half-life in vivo” value [1] is reported as 5.88 h, the “total protein half-life in vivo” value [2] is reported as 4.54 ± 0.31 h and the “total protein half-life in vivo” value [4] is reported as 5.56 h. For the same sequence, the “total protein half-life in vivo” value [5] was 3.83 h, the “total protein half-life in vivo” value [6] was 3.04 ± 0.45 h and the “total protein half-life in vivo” value [7] was 5.55 ± 0.23 h. For the same sequence, the “total protein half-life in vivo” value [9] was 5.02 ± 0.13 h, the “total protein half-life in vivo” value [10] was 7.03 ± 0.46 h and the “total protein half-life in vivo” value [12] was 10.1 ± 0.16 h.
With “MILHAQAKHGKPGLPWLVFLHGFSGDCHEWQEVGEAFADYSRLYVDLPGHGGSAAISVDGFDDVTDLLRKTLVSYNILDFWLVGYSLGGRVAMMAACQGLAGLCGVIVEGGHPGLQNAEQRAERQRSDRQWVQRFLTEPLTAVFADWYQQPVFASLNDDQRRELVALRSNNNGATLAAMLEATSLAVQPDLRANLSARTFAFYYLCGERDSKFRALAAELAADCHVIPRAGHNAHRENPAGVIASLAQILRF” the “total protein half-life in vivo” value [6] was 3.44 h.
In the case of “MILIIYAHPYPHHSHANKRMLEQARTLEGVEIRSLYQLYPDFNIDIAAEQEALSRADLIVWQHPMQWYSIPPLLKLWIDKVFSHGWAYGHGGTALHGKHLLWAVTTGGGESHFEIGAHPGFDVLSQPLQATAIYCGLNWLPPFAMHCTFICDDETLEGQARHYKQRLLEWQEAHHG [P0A754]”, the “total protein half-life in vivo” value [2] is reported as 6.16 h, the “total protein half-life in vivo” value [3] is reported as 5.27 h and the “total protein half-life in vivo” value [4] is reported as 6.37 h. The “total protein half-life in vivo” value [5] was 6.82 h, the “total protein half-life in vivo” value [7] was 4.93 h and the “total protein half-life in vivo” value [8] was 10.9 ± 0.14 h. The “total protein half-life in vivo” value [10] was 10.5 ± 2.2 h, the “total protein half-life in vivo” value [11] was 6.43 ± 0.21 h and the “total protein half-life in vivo” value [12] was 10.3 ± 1.5 h.
In the case of “MILTDPEWQAVLLSLKVSSLAVLFSLPFGIFFAWLLVRCTFPGKALLDSVLHLPLVLPPVVVGYLLLVSMGRRGFIGERLYDWFGITFAFSWRGAVLAAAVMSFPLMVRAIRLALEGVDVKLEQAARTLGAGRWRVFFTITLPLTLPGIIVGTVLAFARSLGEFGATITFVSNIPGETRTIPSAMYTLIQTPGGESGAARLCIISIALAMISLLISEWLARISRERAGR [P0AF01]”, the “total protein half-life in vivo” value [1] is reported as 4.97 h, the “total protein half-life in vivo” value [2] is reported as 6.15 h and the “total protein half-life in vivo” value [6] is reported as 3.03 h. The “total protein half-life in vivo” value [7] was 4.97 h, the “total protein half-life in vivo” value [8] was 9.85 h and the “total protein half-life in vivo” value [9] was 5.21 h. For the same sequence, the “total protein half-life in vivo” value [10] was 9.16 h.
For “MILTPIRRYGAMILMLLTLVFSSEVLAKTHTTTASQKSHLTKASNKQVSSKQEYSRNSAKSSSLPDLRKYPSGTPRKKAFLRTVMPYITSQNAAITAERNWLISKQYQGQWSPAERARLKDIAKRYKVKWSGNTRKIPWNTLLERVDIIPTSMVATMAAAESGWGTSKLARNNNNLFGMKCMKGRCTNAPGKVKGYSQFSSVKESVSAYVTNLNTHPAYSSFRKSRAQLRKADQEVTATAMIHKLKGYSTKGKSYNNYLFAMYQDNQRLIAAHM”, the “total protein half-life in vivo” value [1] was 0.848 h, the “total protein half-life in vivo” value [5] was 3.76 ± 0.26 h and the “total protein half-life in vivo” value [6] was 1.22 h. The “total protein half-life in vivo” value [7] was 2.47 ± 0.18 h and the “total protein half-life in vivo” value [8] was 5.88 ± 0.34 h.
In the case of “MINALGLLEVDGMVAAIDAADAMLKAANVRLLSHEVLDPGRLTLVVEGDLAACRAALDAGCAAAMRTGRVISRKEIGRPDDDTQWLVTGFNRQPKQPVREPDAPVIVAESADELLALLTSVRQGMTAGEVAAHFGWPLEKARNALEQLFSAGTLRKRSSRYRLKPH”, the “total protein half-life in vivo” value [6] is reported as 1.02 ± 0.097 h.

From the supplement of paper PMC11246515
